# In patent US11306156:
# Tests used:
# [1] = target: D3H44 light chain Q124E_T178E, N-terminal HA or FLAG tag; assay: LCCA, SPR of light chain tags, L1:L2 DNA 1:3 norm. to 1:1; other light chain m17
# [2] = target: D3H44 light chain Q124E_Q160E_T178E, N-terminal HA or FLAG tag; assay: as above
# [3] = target: D3H44 light chain Q124E_T178E_T180E, N-terminal HA or FLAG tag; assay: as above
# [4] = target: D3H44 light chain S131E, N-terminal HA or FLAG tag; assay: as above
# [5] = target: D3H44 light chain Q124E_V133E, N-terminal HA or FLAG tag; assay: as above
# [6] = target: D3H44 light chain Q124R_Q160K_T178R, N-terminal HA or FLAG tag; assay: LCCA, SPR of light chain tags, L1:L2 DNA 1:3 norm. to 1:1; other light chain m23
# [7] = target: D3H44 light chain Q124R_Q160K_T178R, N-terminal HA or FLAG tag; assay: LCCA, SPR of light chain tags, L1:L2 DNA 1:3 norm. to 1:1; other light chain m26
# [8] = target: D3H44 light chain Q124R_Q160K_T178R, N-terminal HA or FLAG tag; assay: LCCA, SPR of light chain tags, L1:L2 DNA 1:3 norm. to 1:1; other light chain m21
# [9] = target: D3H44 light chain Q124E_T178E_T180E, N-terminal HA or FLAG tag; assay: LCCA, SPR of light chain tags, L1:L2 DNA 1:9 norm. to 1:1; other light chain m17
# [10] = target: D3H44 light chain Q124E_V133E, N-terminal HA or FLAG tag; assay: as above
# [11] = target: D3H44 light chain S131E, N-terminal HA or FLAG tag; assay: LCCA, SPR of light chain tags, L1:L2 DNA 1:3 norm. to 1:1; other light chain m14
# [12] = target: D3H44 light chain Q124R_Q160K_T178R, N-terminal HA or FLAG tag; assay: LCCA, SPR of light chain tags, L1:L2 DNA 1:9 norm. to 1:1; other light chain m18
# [13] = target: D3H44 light chain Q124R_Q160K_T178R, N-terminal HA or FLAG tag; assay: LCCA, SPR of light chain tags, L1:L2 DNA 1:9 norm. to 1:1; other light chain m21
# [14] = target: D3H44 light chain Q124R_Q160K_T178R, N-terminal HA or FLAG tag; assay: LCCA, SPR of light chain tags, L1:L2 DNA 1:3 norm. to 1:1; other light chain m19
# [15] = target: D3H44 light chain Q124R_T178R, N-terminal HA or FLAG tag; assay: as above
# [16] = target: D3H44 light chain Q124R_Q160K_T178R, N-terminal HA or FLAG tag; assay: LCCA, SPR of light chain tags, L1:L2 DNA 1:3 norm. to 1:1; other light chain m18
# [17] = target: D3H44 light chain Q124R, N-terminal HA or FLAG tag; assay: LCCA, SPR of light chain tags, L1:L2 DNA 1:9 norm. to 1:1; other light chain m28
# [18] = target: D3H44 light chain Q124E_V133D, N-terminal HA or FLAG tag; assay: LCCA, SPR of light chain tags, L1:L2 DNA 1:3 norm. to 1:1; other light chain m24
# [19] = target: D3H44 light chain Q124R, N-terminal HA or FLAG tag; assay: LCCA, SPR of light chain tags, L1:L2 DNA 1:3 norm. to 1:1; other light chain m28
# [20] = target: D3H44 light chain Q124E_V133D, N-terminal HA or FLAG tag; assay: LCCA, SPR of light chain tags, L1:L2 DNA 1:9 norm. to 1:1; other light chain m24
# [21] = target: D3H44 light chain Q124E_S176L_T180E, N-terminal HA or FLAG tag; assay: LCCA, SPR of light chain tags, L1:L2 DNA 1:3 norm. to 1:1; other light chain m17
# [22] = target: D3H44 light chain Q124R_T178R, N-terminal HA or FLAG tag; assay: LCCA, SPR of light chain tags, L1:L2 DNA 1:3 norm. to 1:1; other light chain m20
# [23] = target: D3H44 light chain Q124R_T178R, N-terminal HA or FLAG tag; assay: LCCA, SPR of light chain tags, L1:L2 DNA 1:3 norm. to 1:1; other light chain m15
# [24] = target: D3H44 light chain Q124R_T178R, N-terminal HA or FLAG tag; assay: LCCA, SPR of light chain tags, L1:L2 DNA 1:9 norm. to 1:1; other light chain m15
# [25] = target: D3H44 light chain Q124E_S131T_T178Y_T180E, N-terminal HA or FLAG tag; assay: LCCA, SPR of light chain tags, L1:L2 DNA 1:9 norm. to 1:1; other light chain m14
# [26] = target: D3H44 light chain Q124E_S176L_T180E, N-terminal HA or FLAG tag; assay: as above
# [27] = target: D3H44 light chain Q124E_S131T_T178F_T180E, N-terminal HA or FLAG tag; assay: LCCA, SPR of light chain tags, L1:L2 DNA 1:3 norm. to 1:1; other light chain m14
# [28] = target: D3H44 light chain Q124E_S131T_T178Y_T180E, N-terminal HA or FLAG tag; assay: as above
# [29] = target: D3H44 light chain Q124E_S176L_T180E, N-terminal HA or FLAG tag; assay: as above
# [30] = target: D3H44 light chain Q124R_Q160K_T178R, N-terminal HA or FLAG tag; assay: LCCA, SPR of light chain tags, L1:L2 DNA 1:3 norm. to 1:1; other light chain m16
# [31] = target: D3H44 light chain Q124R_T178R, N-terminal HA or FLAG tag; assay: as above
# [32] = target: D3H44 light chain Q124R_T178R, N-terminal HA or FLAG tag; assay: LCCA, SPR of light chain tags, L1:L2 DNA 1:9 norm. to 1:1; other light chain m16
# [33] = target: D3H44 light chain Q124E_V133E, N-terminal HA or FLAG tag; assay: LCCA, SPR of light chain tags, L1:L2 DNA 1:3 norm. to 1:1; other light chain m24
# [34] = target: D3H44 light chain Q124R, N-terminal HA or FLAG tag; assay: LCCA, SPR of light chain tags, L1:L2 DNA 1:3 norm. to 1:1; other light chain m18
# [35] = target: D3H44 light chain Q124E_V133D_S176L, N-terminal HA or FLAG tag; assay: LCCA, SPR of light chain tags, L1:L2 DNA 1:3 norm. to 1:1; other light chain m17
# [36] = target: D3H44 light chain Q124E_V133D_S176L, N-terminal HA or FLAG tag; assay: LCCA, SPR of light chain tags, L1:L2 DNA 1:9 norm. to 1:1; other light chain m17
# [37] = target: D3H44 light chain Q124R_Q160K_T178R, N-terminal HA or FLAG tag; assay: LCCA, SPR of light chain tags, L1:L2 DNA 1:3 norm. to 1:1; other light chain m27
# [38] = target: D3H44 light chain Q124R_Q160K_T178R, N-terminal HA or FLAG tag; assay: LCCA, SPR of light chain tags, L1:L2 DNA 1:9 norm. to 1:1; other light chain m27
# [39] = target: D3H44 light chain Q124R_T178R, N-terminal HA or FLAG tag; assay: LCCA, SPR of light chain tags, L1:L2 DNA 1:3 norm. to 1:1; other light chain m25
# [40] = target: D3H44 light chain Q124E_V133W_T180E, N-terminal HA or FLAG tag; assay: LCCA, SPR of light chain tags, L1:L2 DNA 1:3 norm. to 1:1; other light chain m14
# [41] = target: D3H44 light chain Q124E_V133Y_T180E, N-terminal HA or FLAG tag; assay: as above
# [42] = target: D3H44 light chain Q124R_T178R, N-terminal HA or FLAG tag; assay: LCCA, SPR of light chain tags, L1:L2 DNA 1:3 norm. to 1:1; other light chain m22
substance,measurement,setting,value
"D3H44 Fab heavy chain L143E_K145T, ABD2-His6 tagged",H1L1:H1L2 normalized median ratio,[1],41%
same,H1L1:H1L2 normalized median ratio,[2],41%
same,H1L1:H1L2 normalized median ratio,[3],18%
same,H1L1:H1L2 normalized median ratio,[4],53%
same,H1L1:H1L2 normalized median ratio,[5],21%
same,H1L1:H1L2 normalized median ratio,[6],59%
same,H1L1:H1L2 normalized median scalar value ln(r1/f1),[6],0.37
same,H1L1:H1L2 normalized median ratio,[7],59%
same,H1L1:H1L2 normalized median scalar value ln(r1/f1),[7],0.36
same,H1L1:H1L2 normalized median ratio,[8],82%
same,H1L1:H1L2 normalized median scalar value ln(r1/f1),[8],1.52
same,H1L1:H1L2 normalized median ratio,[9],19%
same,H1L1:H1L2 normalized median ratio,[10],13%
same,H1L1:H1L2 normalized median ratio,[11],54%
same,H1L1:H1L2 normalized median ratio,[12],37%
same,H1L1:H1L2 normalized median ratio,[13],81%
same,H1L1:H1L2 normalized median scalar value ln(r1/f1),[13],1.44
same,H1L1:H1L2 normalized median ratio,[14],47%
same,H1L1:H1L2 normalized median scalar value ln(r1/f1),[14],-0.14
same,H1L1:H1L2 normalized median ratio,[15],46%
same,H1L1:H1L2 normalized median scalar value ln(r1/f1),[15],-0.16
same,H1L1:H1L2 normalized median ratio,[16],79%
same,H1L1:H1L2 normalized median scalar value ln(r1/f1),[16],1.35
"D3H44 Fab heavy chain L143K_D146G, ABD2-His6 tagged",H2L2:H2L1 normalized median ratio,[17],12%
same,H2L2:H2L1 normalized median ratio,[18],91%
same,H2L2:H2L1 normalized median ratio,[19],9%
same,H2L2:H2L1 normalized median ratio,[20],88%
"D3H44 Fab heavy chain Q179R, ABD2-His6 tagged",H2L2:H2L1 normalized median ratio,[1],97%
same,H2L2:H2L1 normalized median ratio,[2],97%
same,H2L2:H2L1 normalized median ratio,[3],93%
same,H2L2:H2L1 normalized median ratio,[21],98%
same,H2L2:H2L1 normalized median ratio,[6],3%
same,H2L2:H2L1 normalized median ratio,[7],3%
same,H2L2:H2L1 normalized median ratio,[8],7%
same,H2L2:H2L1 normalized median ratio,[22],4%
same,H2L2:H2L1 normalized median ratio,[23],6%
same,H2L2:H2L1 normalized median ratio,[24],9%
same,H2L2:H2L1 normalized median ratio,[25],91%
same,H2L2:H2L1 normalized median ratio,[26],85%
same,H2L2:H2L1 normalized median ratio,[9],92%
same,H2L2:H2L1 normalized median ratio,[27],96%
same,H2L2:H2L1 normalized median ratio,[28],94%
same,H2L2:H2L1 normalized median ratio,[29],93%
same,H2L2:H2L1 normalized median ratio,[30],2%
same,H2L2:H2L1 normalized median ratio,[31],7%
same,H2L2:H2L1 normalized median ratio,[32],15%
same,H2L2:H2L1 normalized median ratio,[13],8%
"D3H44 Fab heavy chain L143R, ABD2-His6 tagged",H2L2:H2L1 normalized median ratio,[5],96%
same,H2L2:H2L1 normalized median ratio,[33],96%
same,H2L2:H2L1 normalized median ratio,[10],93%
same,H2L2:H2L1 normalized median ratio,[12],7%
same,H2L2:H2L1 normalized median ratio,[16],4%
same,H2L2:H2L1 normalized median ratio,[34],4%
"D3H44 Fab heavy chain L143K, ABD2-His6 tagged",H2L2:H2L1 normalized median ratio,[35],94%
same,H2L2:H2L1 normalized median ratio,[36],91%
same,H2L2:H2L1 normalized median ratio,[37],6%
same,H2L2:H2L1 normalized median ratio,[38],9%
"D3H44 Fab heavy chain L143E_K145T_Q179E_S188L, ABD2-His6 tagged",H2L2:H2L1 normalized median ratio,[39],75%
same,H1L1:H1L2 normalized median ratio,[22],77%
same,H1L1:H1L2 normalized median scalar value ln(r1/f1),[22],1.19
same,H1L1:H1L2 normalized median ratio,[23],83%
same,H1L1:H1L2 normalized median scalar value ln(r1/f1),[23],1.62
same,H1L1:H1L2 normalized median ratio,[24],79%
same,H1L1:H1L2 normalized median scalar value ln(r1/f1),[24],1.33
same,H1L1:H1L2 normalized median ratio,[25],21%
same,H1L1:H1L2 normalized median ratio,[26],10%
same,H1L1:H1L2 normalized median ratio,[27],23%
same,H2L2:H2L1 normalized median ratio,[40],25%
same,H1L1:H1L2 normalized median ratio,[28],17%
same,H1L1:H1L2 normalized median ratio,[29],13%
same,H2L2:H2L1 normalized median ratio,[41],29%
same,H1L1:H1L2 normalized median ratio,[31],87%
same,H1L1:H1L2 normalized median scalar value ln(r1/f1),[31],1.9
same,H1L1:H1L2 normalized median ratio,[32],90%
same,H1L1:H1L2 normalized median scalar value ln(r1/f1),[32],2.25
same,H2L2:H2L1 normalized median ratio,[42],71%
"D3H44 Fab heavy chain S186K, ABD2-His6 tagged",H2L2:H2L1 normalized median ratio,[1],98%
same,H2L2:H2L1 normalized median ratio,[4],99%
same,H2L2:H2L1 normalized median ratio,[7],2%
same,H2L2:H2L1 normalized median ratio,[22],4%
same,H2L2:H2L1 normalized median ratio,[23],5%
same,H2L2:H2L1 normalized median ratio,[24],11%
same,H2L2:H2L1 normalized median ratio,[25],89%
same,H2L2:H2L1 normalized median ratio,[27],96%
same,H2L2:H2L1 normalized median ratio,[28],95%
same,H2L2:H2L1 normalized median ratio,[11],98%
same,H2L2:H2L1 normalized median ratio,[14],1%
same,H2L2:H2L1 normalized median ratio,[15],2%
